Target: IGF2 receptor (cation-independent mannose-6-phosphate receptor)
Assay: IGF2 receptor binding assay; average over the BMN001 lots used in the nonclinical studies; format and competitor not described

- IC50: 0.28 nM
B1: BMN001 therapeutic fusion protein (mature human Naglu fused through a rigid linker to a furin-resistant IGF-II peptide, amino acids 8-67 of mature human IGF-II … (enzyme)
chain: DEAREAAAVRALVARLLGPGPAADFSVSVERALAAKPGLDTYSLGGGGAARVRVRGSTGVAAAAGLHRYLRDFCGCHVAWSGSQLRLPRPLPAVPGELTEATPNRYRYYQNVCTQSYSFVWWDWARWEREIDWMALNGINLALAWSGQEAIWQRVYLALGLTQAEINEFFTGPAFLAWGRMGNLHTWDGPLPPSWHIKQLYLQHRVLDQMRSFGMTPVLPAFAGHVPEAVTRVFPQVNVTKMGSWGHFNCSYSCSFLLAPEDPIFPIIGSLFLRELIKEFGTDHIYGADTFNEMQPPSSEPSYLAAATTAVYEAMTAVDTEAVWLLQGWLFQHQPQFWGPAQIRAVLGAVPRGRLLVLDLFAESQPVYTRTASFQGQPFIWCMLHNFGGNHGLFGALEAVNGGPEAARLFPNSTMVGTGMAPEGISQNEVVYSLMAELGWRKDPVPDLAAWVTSFAARRYGVSHPDAGAAWRLLLRSVYNCSGEACRGHNRSPLVRRPSLQMNTSIWYNRSDVFEAWRLLLTSAPSLATSPAFRYDLLDLTRQAVQELVSLYYEEARSAYLSKELASLLRAGGVLAYELLPALDEVLASDSRFLLGSWLEQARAAAVSEAEADFYEQNSRYQLTLWGPEGNILDYANKQLAGLVANYYTPRWRLFLEALVDSVAQGIPFQQHQFDKNVFQLEQAFVLSKQRYPSQPRGDTVDLAKKIFLKYYPRWVAGSWGAPGGGSPAPAPTPAPAPTPAPAGGGPSGAPLCGGELVDTLQFVCGDRGFYFSRPASRVSARSRGIVEECCFRSCDLALLETYCATPAKSE
notes: also called Naglu/IGF-II fusion protein

— patent US20240263160A1 (BIOMARIN PHARMACEUTICAL, published 2024)
